Measurements as given in patent US20110178027A1.

molecular target: PC4 (UniProt Q6UW60); experiment: enzyme inhibition
Sequence (Q6UW60 114-708): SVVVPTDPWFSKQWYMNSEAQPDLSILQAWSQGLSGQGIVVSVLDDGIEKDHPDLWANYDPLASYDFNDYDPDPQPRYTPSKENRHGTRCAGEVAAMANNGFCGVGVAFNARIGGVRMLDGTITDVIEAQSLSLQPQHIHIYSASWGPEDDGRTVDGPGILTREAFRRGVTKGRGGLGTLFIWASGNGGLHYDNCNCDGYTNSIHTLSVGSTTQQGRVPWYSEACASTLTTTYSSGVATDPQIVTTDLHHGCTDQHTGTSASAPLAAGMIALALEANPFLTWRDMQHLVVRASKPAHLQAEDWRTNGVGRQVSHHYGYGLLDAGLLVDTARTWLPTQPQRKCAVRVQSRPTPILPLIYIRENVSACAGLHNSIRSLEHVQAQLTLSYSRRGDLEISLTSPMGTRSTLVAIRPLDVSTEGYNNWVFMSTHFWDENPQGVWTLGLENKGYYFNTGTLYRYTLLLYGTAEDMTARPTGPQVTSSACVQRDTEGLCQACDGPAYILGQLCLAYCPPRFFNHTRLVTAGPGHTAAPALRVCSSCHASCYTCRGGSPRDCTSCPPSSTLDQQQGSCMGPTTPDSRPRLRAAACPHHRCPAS

Ki [nM] | Substance
330 | LLRVKR-NH2
20800 | RVKR-NH2
730 | LLLRVKR-NH2
630 | LRVKR-NH2
